Data reported in paper PMC8494132, “Human Three-Finger Protein Lypd6 Is a Negative Modulator of the Cholinergic System in the Brain” (Frontiers in Cell and Developmental Biology, 2021).

Experiments:
[1] = target: native α7 nicotinic acetylcholine receptor in interneurons of CA1 stratum radiatum, rat hippocampal slices (rat (endogenous in hippocampal slices)) (UniProt Q05941)
[2] = target: human α3β4 nicotinic acetylcholine receptor expressed in X. laevis oocytes (human) (UniProt P32297)
[3] = target: human homomeric α7 nicotinic acetylcholine receptor expressed in X. laevis oocytes (human) (UniProt P36544)
LRP6 (Homo sapiens) = LRP6 (Homo sapiens) (UniProt O75581); details: cited from earlier work
[4] = target: T1, α7-nAChR (native, rat hippocampal CA1 interneurons) (Rattus norvegicus, UniProt Q05941); test: whole-cell patch clamp, hippocampal slices; details: agonist; 1 mM choline pulses, 22°C, -60 mV, pH 7.4
T1 construct: gene Chrna7; native receptor in CA1 stratum radiatum interneurons of hippocampal slices

[5] = target: human homomeric α7 nicotinic acetylcholine receptor expressed in X. laevis oocytes (human) (UniProt P36544); remark: listed apart in the source

Chain of human homomeric α7 nicotinic acetylcholine receptor expressed in X. laevis oocytes (human) (P36544 23-502): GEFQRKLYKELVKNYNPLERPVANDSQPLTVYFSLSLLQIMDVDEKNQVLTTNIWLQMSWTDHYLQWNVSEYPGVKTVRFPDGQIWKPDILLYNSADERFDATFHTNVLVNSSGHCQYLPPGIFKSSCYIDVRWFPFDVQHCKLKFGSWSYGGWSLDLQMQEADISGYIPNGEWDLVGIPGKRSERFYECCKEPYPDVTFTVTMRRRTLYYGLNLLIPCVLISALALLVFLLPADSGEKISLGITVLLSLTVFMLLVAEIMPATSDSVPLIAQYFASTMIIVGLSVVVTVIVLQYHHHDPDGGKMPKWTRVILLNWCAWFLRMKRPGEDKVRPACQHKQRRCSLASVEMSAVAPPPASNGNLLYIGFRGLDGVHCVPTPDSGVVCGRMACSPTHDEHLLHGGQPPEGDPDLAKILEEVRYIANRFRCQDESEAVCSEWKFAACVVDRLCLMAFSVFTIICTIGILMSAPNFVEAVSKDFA
Chain of LRP6 (Homo sapiens) (O75581 20-1370): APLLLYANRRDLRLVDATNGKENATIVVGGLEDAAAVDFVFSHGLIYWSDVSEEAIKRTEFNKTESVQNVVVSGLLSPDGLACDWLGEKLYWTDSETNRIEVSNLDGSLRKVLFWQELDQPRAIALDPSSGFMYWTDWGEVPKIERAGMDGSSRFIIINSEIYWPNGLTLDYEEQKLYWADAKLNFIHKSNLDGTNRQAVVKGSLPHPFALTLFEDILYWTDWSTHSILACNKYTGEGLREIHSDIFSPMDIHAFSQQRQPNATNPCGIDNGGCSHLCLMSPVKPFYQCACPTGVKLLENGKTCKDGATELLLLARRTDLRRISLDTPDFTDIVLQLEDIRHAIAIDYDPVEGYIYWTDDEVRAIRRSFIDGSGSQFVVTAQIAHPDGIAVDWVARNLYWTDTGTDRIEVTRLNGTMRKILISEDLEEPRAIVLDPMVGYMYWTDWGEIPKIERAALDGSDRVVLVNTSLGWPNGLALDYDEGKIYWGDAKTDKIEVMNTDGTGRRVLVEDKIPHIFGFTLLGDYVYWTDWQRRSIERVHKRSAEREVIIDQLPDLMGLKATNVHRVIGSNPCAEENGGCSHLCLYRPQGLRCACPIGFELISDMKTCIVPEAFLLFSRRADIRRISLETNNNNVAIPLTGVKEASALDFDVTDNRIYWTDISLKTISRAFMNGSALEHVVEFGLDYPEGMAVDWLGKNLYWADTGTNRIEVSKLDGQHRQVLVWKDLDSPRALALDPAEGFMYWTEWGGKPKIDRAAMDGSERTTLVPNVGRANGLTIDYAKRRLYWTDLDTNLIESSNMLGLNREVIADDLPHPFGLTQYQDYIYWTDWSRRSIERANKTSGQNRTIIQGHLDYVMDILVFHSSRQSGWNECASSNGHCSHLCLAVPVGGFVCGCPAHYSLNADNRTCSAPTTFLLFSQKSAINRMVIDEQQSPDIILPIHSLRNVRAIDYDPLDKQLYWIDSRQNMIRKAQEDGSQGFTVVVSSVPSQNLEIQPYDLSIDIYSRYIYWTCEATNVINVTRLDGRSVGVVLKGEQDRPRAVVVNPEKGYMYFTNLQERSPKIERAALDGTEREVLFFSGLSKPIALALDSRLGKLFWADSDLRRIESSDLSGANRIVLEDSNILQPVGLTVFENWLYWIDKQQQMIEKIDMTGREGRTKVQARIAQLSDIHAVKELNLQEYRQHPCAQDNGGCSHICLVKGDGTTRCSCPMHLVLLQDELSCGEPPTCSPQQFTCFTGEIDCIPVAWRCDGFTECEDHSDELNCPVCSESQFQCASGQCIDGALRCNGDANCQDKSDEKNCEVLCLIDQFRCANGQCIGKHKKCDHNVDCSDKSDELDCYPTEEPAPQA
Chain of native α7 nicotinic acetylcholine receptor in interneurons of CA1 stratum radiatum, rat hippocampal slices (rat (endogenous in hippocampal slices)) (Q05941 23-502): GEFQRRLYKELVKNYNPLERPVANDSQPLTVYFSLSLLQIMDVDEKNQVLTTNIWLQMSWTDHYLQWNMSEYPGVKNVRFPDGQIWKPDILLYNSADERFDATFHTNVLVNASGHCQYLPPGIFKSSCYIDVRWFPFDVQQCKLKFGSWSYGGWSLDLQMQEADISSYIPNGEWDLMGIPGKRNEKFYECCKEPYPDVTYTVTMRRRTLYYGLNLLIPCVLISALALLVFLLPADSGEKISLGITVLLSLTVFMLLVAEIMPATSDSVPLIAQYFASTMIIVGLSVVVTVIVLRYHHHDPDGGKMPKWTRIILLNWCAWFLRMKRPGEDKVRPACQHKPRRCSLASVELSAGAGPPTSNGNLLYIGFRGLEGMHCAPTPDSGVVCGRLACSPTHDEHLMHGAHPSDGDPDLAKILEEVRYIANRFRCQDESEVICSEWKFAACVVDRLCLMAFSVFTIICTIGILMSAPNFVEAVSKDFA
T1 sequence (Q05941 23-502): as above
Chain of human α3β4 nicotinic acetylcholine receptor expressed in X. laevis oocytes (human) (P32297 32-505, chain 1 of 2): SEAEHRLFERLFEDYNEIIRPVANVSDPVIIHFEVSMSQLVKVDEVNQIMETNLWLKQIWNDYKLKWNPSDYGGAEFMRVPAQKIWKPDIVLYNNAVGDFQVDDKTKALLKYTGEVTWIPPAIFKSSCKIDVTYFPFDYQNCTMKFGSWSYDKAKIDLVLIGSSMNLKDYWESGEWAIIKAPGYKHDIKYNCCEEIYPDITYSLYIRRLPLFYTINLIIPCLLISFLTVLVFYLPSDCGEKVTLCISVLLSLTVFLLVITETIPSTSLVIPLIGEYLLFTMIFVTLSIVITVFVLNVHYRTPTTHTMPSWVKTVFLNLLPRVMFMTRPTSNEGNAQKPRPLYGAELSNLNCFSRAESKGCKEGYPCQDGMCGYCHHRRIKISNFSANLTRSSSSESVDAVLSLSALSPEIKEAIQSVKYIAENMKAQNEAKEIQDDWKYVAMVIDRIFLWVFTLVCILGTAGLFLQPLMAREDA
Chain of human α3β4 nicotinic acetylcholine receptor expressed in X. laevis oocytes (human) (P30926 22-498, chain 2 of 2, further chain): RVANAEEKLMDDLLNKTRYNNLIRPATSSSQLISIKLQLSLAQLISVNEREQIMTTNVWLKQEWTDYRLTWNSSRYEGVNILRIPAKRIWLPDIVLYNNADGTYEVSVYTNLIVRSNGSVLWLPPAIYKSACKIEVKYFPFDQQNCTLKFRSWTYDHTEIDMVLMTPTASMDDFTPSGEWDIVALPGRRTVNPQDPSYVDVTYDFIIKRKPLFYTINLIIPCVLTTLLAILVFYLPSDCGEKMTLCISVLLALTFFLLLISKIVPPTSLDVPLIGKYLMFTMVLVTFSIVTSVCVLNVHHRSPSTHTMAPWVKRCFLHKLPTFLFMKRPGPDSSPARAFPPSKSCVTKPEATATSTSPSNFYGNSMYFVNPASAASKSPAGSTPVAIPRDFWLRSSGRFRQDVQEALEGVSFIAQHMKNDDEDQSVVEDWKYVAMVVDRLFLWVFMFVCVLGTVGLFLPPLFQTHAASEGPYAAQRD

Molecule: recombinant water-soluble variant of human Lypd6 containing the isolated three-finger LU-domain (ws-Lypd6) (domain or fragment)
- amplitude of choline-evoked currents (1 mM choline) with 1 μM ws-Lypd6, whole-cell patch clamp in rat hippocampal slices with 8 μM DhβE; reversed by washout (% of the control value) [1]: 72
- IC50 of inhibition of ACh-evoked currents (100 μM ACh, 5 min pre-incubation), two-electrode voltage clamp, X. laevis oocytes [2]: 34.9 µM
- IC50 of inhibition of ACh-evoked currents (100 μM ACh, 15 s pre-incubation), two-electrode voltage clamp, X. laevis oocytes [3]: 10.9 µM

Molecule: Lypd6 (from UniProt Q86Y78)
- Kd (LRP6 (Homo sapiens)): 1 µM

Molecule: C[N+](C)(C)CCO [Choline]
- whole-cell patch clamp, hippocampal slices [4]: Application of choline induced the robust currents in the interneurons of CA1 str. radiatum

B1: isolated water-soluble LU-domain of Lypd6b (ws-Lypd6b) (domain or fragment)
chain: FKCFTCENAGDNYNCNRWAEDKWCPQNTQYCLTVHHFTSHGRSTSITKKCASRSECHFVGCHHSRDSEHTECRSCCEGMICNVELPTNHTNAVFA
- reduction of the ACh-evoked current amplitude by 30 μM ws-Lypd6b (100 μM ACh), two-electrode voltage clamp, X. laevis oocytes [5]: 20%
